Experimental data published in CN116836273A (DONGGUAN PENGZHI BIOTECHNOLOGY CO LTD, dated 2023).

T1: 血清淀粉样蛋白A (Serum amyloid A, SAA) (UniProt P0DJI8 19-122, limits assumed)
T1 construct: Bought antigen
T1 sequence (looked up): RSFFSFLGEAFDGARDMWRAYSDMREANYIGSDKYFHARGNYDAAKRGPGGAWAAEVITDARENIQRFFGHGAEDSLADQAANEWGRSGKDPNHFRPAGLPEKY


Assays:
[1] = biological target: T1, 血清淀粉样蛋白A (Serum amyloid A, SAA); assay: indirect ELISA, SAA coated at 2 ug/ml, antibody at 15 ng/ml
[2] = biological target: T1, 血清淀粉样蛋白A (Serum amyloid A, SAA); assay: indirect ELISA, SAA coated at 2 ug/ml, antibody at 60 ng/ml
[3] = biological target: T1, 血清淀粉样蛋白A (Serum amyloid A, SAA); assay: indirect ELISA, SAA coated at 2 ug/ml, antibody at 3.75 ng/ml
[4] = biological target: T1, 血清淀粉样蛋白A (Serum amyloid A, SAA); assay: indirect ELISA, SAA coated at 2 ug/ml, antibody at 7.5 ng/ml
[5] = biological target: T1, 血清淀粉样蛋白A (Serum amyloid A, SAA); assay: indirect ELISA, SAA coated at 2 ug/ml, antibody at 0 ng/ml (blank)
[6] = biological target: T1, 血清淀粉样蛋白A (Serum amyloid A, SAA); assay: indirect ELISA, SAA coated at 2 ug/ml, antibody at 30 ng/ml
[7] = biological target: T1, 血清淀粉样蛋白A (Serum amyloid A, SAA); assay: BLI, antibody captured on AMC sensor, SAA in solution

Binder	OD [1]	OD [2]	OD [3]	OD [4]	OD [5]	OD [6]	Kd [7] [nM]	koff [7] [s⁻¹]	kon [7] [M⁻¹ s⁻¹]
Anti-SAA 9G5mut1 (antibody, mouse IgG2a, kappa, Recombinant monoclonal antibody made in CHO cells, a mutant of Anti-SAA 9G5) heavy: EVHLQQSGAELVTPGASVKLSCTASGFNIKDTYMHWVKQRPEQGLEWIGRIDPANGNTKYDPKFQGKATMTADTSSNTAYLQLSSLTSEDTAVYYCARGGNYDWGQGTTLSVSSAKTTAPSVYPLAPVCGDTTGSSVTLGCLVKGYFPEPVTLTWNSGSLSSGVHTFPAVLQSDLYTLSSSVTVTSSTWPSQSITCNVAHPASSTKVDKKIEPRGPTIKPCPPCKCPAPNLLGGPSVFIFPPKIKDVLMISLSPIVTCVVVDVSEDDPDVQISWFVNNVEVHTAQTQTHREDYNSTLRVVSALPIQHQDWMSGKEFKCKVNNKDLPAPIERTISKPKGSVRAPQVYVLPPPEEEMTKKQVTLTCMVTDFMPEDIYVEWTNNGKTELNYKNTEPVLDSDGSYFMYSKLRVEKKNWVERNSYSCSVVHEGLHNHHTTKSFSRTPGK light: DIVLTQSPASLAVSLGQRATISCKASQSVDYDGYSYLNWYQQKPGQPPKLLISAASNLESGIPARFSGSGSGTDFTLNIHPVEEEDAATYYCQQSNEDPYTFGGGTKLQIKRADAAPTVSIFPPSSEQLTSGGASVVCFLNNFYPKDINVKWKIDGSERQNGVLNSWTDQDSKDSTYSMSSTLTLTKDEYERHNSYTCEATHKTSTSPIVKSFNRNEC	1.23 OD450 (ref. 630 nm)	2.26 OD450 (ref. 630 nm)	0.474 OD450 (ref. 630 nm)	0.767 OD450 (ref. 630 nm)	0.011 OD450 (ref. 630 nm)	1.95 OD450 (ref. 630 nm)	0.906	6.67e-05	73600
Anti-SAA 9G5mut2 (antibody, mouse IgG2a, kappa, Recombinant monoclonal antibody made in CHO cells, a mutant of Anti-SAA 9G5) heavy: EVHLQQSGAELVTPGASVKLSCTASGFNIKDTYMHWVKQRPEQGLEWIGRIDPANGNTKYDPKFQGKATMTADTSSNTAYLQLSSLTSEDTAVYYCARGGNYDWGQGTTLSVSSAKTTAPSVYPLAPVCGDTTGSSVTLGCLVKGYFPEPVTLTWNSGSLSSGVHTFPAVLQSDLYTLSSSVTVTSSTWPSQSITCNVAHPASSTKVDKKIEPRGPTIKPCPPCKCPAPNLLGGPSVFIFPPKIKDVLMISLSPIVTCVVVDVSEDDPDVQISWFVNNVEVHTAQTQTHREDYNSTLRVVSALPIQHQDWMSGKEFKCKVNNKDLPAPIERTISKPKGSVRAPQVYVLPPPEEEMTKKQVTLTCMVTDFMPEDIYVEWTNNGKTELNYKNTEPVLDSDGSYFMYSKLRVEKKNWVERNSYSCSVVHEGLHNHHTTKSFSRTPGK light: DIVLTQSPASLAVSLGQRATLSCKASQSVDYDGYSYLNWYQQKPGQPPKLLISAASNLESGIPARFSGSGSGTDFTLNIHPVEEEDAATYYCQQSNEDPYTFGGGTKLQIKRADAAPTVSIFPPSSEQLTSGGASVVCFLNNFYPKDINVKWKIDGSERQNGVLNSWTDQDSKDSTYSMSSTLTLTKDEYERHNSYTCEATHKTSTSPIVKSFNRNEC	1.3 OD450 (ref. 630 nm)	2.31 OD450 (ref. 630 nm)	0.501 OD450 (ref. 630 nm)	0.801 OD450 (ref. 630 nm)	0.011 OD450 (ref. 630 nm)	2.01 OD450 (ref. 630 nm)	0.875	6.52e-05	74500
Anti-SAA 4B3mut1 (antibody, mouse IgG1, kappa, V domains shown, Recombinant monoclonal antibody made in CHO cells, a mutant of Anti-SAA 4B3) VH: QVQLQQSGAELVKPGASVKLSCKTSGYTFTNKYIYWLKQRPGQGLEWIGEIDPSNGATKFNEKFTNKATLTVDRSSTTAYVELSSLTSEDSAVYYCARGAYWGHGTLVTVSA VL: not shown	1.13 OD450 (ref. 630 nm)	2.21 OD450 (ref. 630 nm)	0.386 OD450 (ref. 630 nm)	0.635 OD450 (ref. 630 nm)	0.007 OD450 (ref. 630 nm)	1.51 OD450 (ref. 630 nm)	0.897	6.75e-05	75200
